From article PMC8701324, “Structural Insight into the Mechanism of PALB2 Interaction with MRG15” (Genes, 2021)

Target: MRG15 MRG domain, amino acids 155-323, Q9UBU8-2
Assay: competition assay (fluorescence anisotropy, displacement of FAM-PALB2 from MRG)
Conditions: chain shown with the change; 10 nM WT FAM-PALB2 peptide; parent: 9.8 ±2.6

MRG15 MRG domain, amino acids 155-323, Q9UBU8-2, sequence (Q9UBU8 194-362): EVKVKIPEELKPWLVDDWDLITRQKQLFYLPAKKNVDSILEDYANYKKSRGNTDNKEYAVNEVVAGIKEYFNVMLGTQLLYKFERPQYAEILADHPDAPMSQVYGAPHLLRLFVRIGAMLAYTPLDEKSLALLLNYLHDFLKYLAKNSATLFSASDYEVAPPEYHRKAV

Binder | Ki
MLSLKQLLSFLSITDFQLPDEDFGTLKLEKVKSC [WT PALB2^597-630 peptide P621T] | 1.7 nM
MLSLKQLLSFLSITDFQLSDEDFGPLKLEKVKSC [WT PALB2^597-630 peptide P615S] | 52.8 nM
MLSLKQLLSFLSITDFQLPHEDFGPLKLEKVKSC [WT PALB2^597-630 peptide D616H] | 23.2 nM
